Article doi:10.1101/2020.03.16.993006 (bioRxiv, 2020)
Like-named read-outs stand apart in the source and are kept apart here.

Columns and labels:
[1] = target: Rhodamine green-hepcidin (human); test: fluorescence polarisation
[2] = target: Rhodamine green-hepcidin (human); test: fluorescence polarisation; remark: listed apart in the source
[3] = target: Rhodamine green-hepcidin (human); test: fluorescence polarisation; remark: listed apart in the source
[4] = target: Rhodamine green-hepcidin (human); test: fluorescence polarisation; remark: listed apart in the source
[5] = target: human ferroportin (FPN), wild type, reconstituted in lipid nanodisc (human, UniProt Q9NP59); test: cryo-EM structure

B1: human ferroportin (FPN), wild type, reconstituted in lipid nanodisc (natural protein)
chain: MTRAGDHNRQRGCCGSLADYLTSAKFLLYLGHSLSTWGDRMWHFAVSVFLVELYGNSLLLTAVYGLVVAGSVLVLGAIIGDWVDKNARLKVAQTSLVVQNVSVILCGIILMMVFLHKHELLTMYHGWVLTSCYILIITIANIANLASTATAITIQRDWIVVVAGEDRSKLANMNATIRRIDQLTNILAPMAVGQIMTFGSPVIGCGFISGWNLVSMCVEYVLLWKVYQKTPALAVKAGLKEEETELKQLNLHKDTEPKPLEGTHLMGVKDSNIHELEHEQEPTCASQMAEPFRTFRDGWVSYYNQPVFLAGMGLAFLYMTVLGFDCITTGYAYTQGLSGSILSILMGASAITGIMGTVAFTWLRRKCGLVRTGLISGLAQLSCLILCVISVFMPGSPLDLSVSPFEDIRSRFIQGESITPTKIPEITTEIYMSNGSNSANIVPETSPESVPIISVSLLFAGVIAARIGLWSFDLTVTQLLQENVIESERGIINGVQNSMNYLLDLLHFIMVILAPNPEAFGLLVLISVSFVAMGHIMYFRFAQNTLGNKLFACGPDAKEVRKENQANTSVV
- Kd [1]: 7.7 nM
- Kd [2]: 7.8 nM
- Kd [3]: 210 nM
- Kd [4]: 2.5 nM

B2: Fab45D8 (Fab, V domains shown)
VH: EVQLQESGPGLAKPSQTLSLTCSVTGSSITSDYWNWIRKFPGNKLEYMGYISYSGSTYYNPSLKSQISITRDTSKNHYYLQLNSVTTEDTATYYCARQGLRNWYFDVWGTGTTVTVSS
VL: DIVLTQSPASLPVSLGQRATISCRASKSVSASAYSYMHWYQQKPGQPPKPLIYLASNLESGVPARFSGSGSGTDFTLNIHPVEEEDAATYYCQHNRELPYTFGGGTKLEIK
- binding result [5]: binds
